Data published in paper PMC5300155, “Biochemical and biophysical investigations of the interaction between human glucokinase and pro-apoptotic BAD” (PLoS ONE, 2017).

How the values were obtained:
GCK = biological target: T1, GCK (Homo sapiens, UniProt P35557); assay: GCK activity, microplate G6PDH-linked assay as described by Szlyk et al. (37°C); format: biochemical; details: GCK 7.5 nM; for Effect on GCK Vmax: either assay (routine and Szlyk microplate), peptide 5 μM, 37°C in microplate assay
T1 construct: hexahistidine (N); made in house; host or cells: glucokinase auxotroph BM5340(DE3)
T1 sequence (P35557 1-465): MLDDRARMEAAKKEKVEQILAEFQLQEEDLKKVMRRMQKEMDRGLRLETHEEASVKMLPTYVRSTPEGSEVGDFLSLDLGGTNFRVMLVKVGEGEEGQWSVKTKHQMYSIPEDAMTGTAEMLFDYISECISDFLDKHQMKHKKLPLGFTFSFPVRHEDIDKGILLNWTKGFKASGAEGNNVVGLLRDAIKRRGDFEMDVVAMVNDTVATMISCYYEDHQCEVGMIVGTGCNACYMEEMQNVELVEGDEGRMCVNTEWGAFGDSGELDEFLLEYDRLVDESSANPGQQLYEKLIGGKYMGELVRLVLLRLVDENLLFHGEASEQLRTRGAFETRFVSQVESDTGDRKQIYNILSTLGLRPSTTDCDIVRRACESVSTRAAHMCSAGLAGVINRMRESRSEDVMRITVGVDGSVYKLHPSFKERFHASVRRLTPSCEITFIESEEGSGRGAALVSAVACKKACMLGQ
Procedure: Steady state kinetics were also performed as described by Szlyk, et al.[13]. Briefly, G6PDH-linked assays were performed in clear 96-well plates at 37°C with a SpectraMax M5 microplate reader (Molecular Devices) recording absorbance at 340 nm every 30 s. Reaction mixtures contained GCK (7.5 nM), HEPES (100 mM, pH 7.4), KCl (150 mM), MgCl2(6 mM), DTT (1 mM), NAD (1 mM), BSA (0.05%), G6PDH (2.5 U), glucose (0.5–100 mM), and ATP (5 mM) in the presence or absence of BAD-GST S118D variant (5 μM) or phosphorylated BAD BH3 peptide (5 μM) in a final volume of 100 μL.
GCK (7.5 nM) was assayed in the presence of A. S118D BADGST (5 μM) or B. pBH3 (5 μM) in a 96 well plate using a microplate reader. Buffer conditions were as follows: Ref [13]: 100 mM Hepes, pH 7.4; 150 mM KCl; 1 mM NAD+; 0.05% BSA; 6 mM MgCl2; 1 mM DTT; 2.5 U G6PDH; 5 mM ATP. Optimal GCK conditions: 100 mM Hepes, pH 7.4; 150 mM KCl; 1 mM NADP+; 6 mM MgCl2; 10 mM DTT; 1.5 U G6PDH; 5 mM ATP. (EPS) Click here for additional data file.

[1] = Analytical ultracentrifugation sedimentation velocity (oligomerization, shape); format: physicochemical; details: 20°C, 50,000 x g
Procedure: (§1) Sedimentation velocity experiments were conducted with an Optima XLI Ultracentrifuge (Beckman Coulter) using a four-hole rotor with three 420 μL samples in standard double-sector Epon centerpieces equipped with sapphire windows. Absorbance and interference data were collected simultaneously. Size-exclusion purified proteins were concentrated to OD280 nm = 0.3–1.0 prior to centrifugation. For complex formation, proteins were mixed in a 1:1 molar ratio in BAD buffer (0.1 M Tris, 0.1 M KCl, 0.5 M arginine, 2.5 mM CHAPS, 5 mM TCEP, 10% glycerol, pH 8.5) and incubated on ice 30 min prior to the start of the experiment. Experiments were carried out at 20°C and 50,000 x g. Data were analyzed with Ultrascan III software using a minimum of 70 scans per sample for analysis. Van Holde-Weischet analysis was performed to obtain S20,W values.

Bcl-xL = biological target: T2, Bcl-xL (Homo sapiens, UniProt Q07817, DEL45-84); assay: Analytical ultracentrifugation sedimentation velocity of 1:1 mixture BAD-GST and Bcl-xL; format: binding; details: 1:1 mixture of BAD-GST and Bcl-xL, 20°C, 50,000 x g, BAD buffer pH 8.5
T2 construct: made in house
Procedure: as §1

[2] = Aggregation in refolding buffers (spin-filter assay); format: physicochemical; details: CHAPS (2.5 mM) and arginine (0.5 M)
Procedure: To determine buffer conditions for BAD-GST refolding, we made use of a spin-filter assay developed by Bondos and Bicknell. Purified protein was collected after size-exclusion chromatography and diluted into test buffers containing various stabilizers and detergents, including Triton-X (0.2%), CHAPS (1.25–6.0 mM), arginine (0.1–0.6 M), glycerol (20%) or urea (1.5 M). After overnight incubation at 4°C, diluted protein was filtered across a 100,000 MWCO microconcentrator (Amicon Ultra 0.5, EMD Millipore) at 14,000 x g. Concentrate was considered aggregated protein, while flow through was considered non-aggregated protein. Concentrate and flow through were resuspended to equal volumes and analyzed via SDS-PAGE; protein was visualized with SYPRO Ruby stain on a fluorescence imaging scanner. ImageJ software was used to measure ratios of non-aggregated to aggregated protein [26].

[3] = Proteolysis and aggregation of recombinant BAD produced under native conditions; format: physicochemical
Procedure: Under native conditions, cell pellet was resuspended and lysed in HEPES buffer (50 mM, pH7.6) containing NaCl (50 mM), imidazole (25 mM), glycerol (5%), and DTT (5 mM). PMSF, benzamidine, a protease inhibitor cocktail (Pierce), and BSA (0.1 mg/mL) were added to the lysis buffer in attempts to reduce protein degradation. Clarified lysate was applied to a HisTrap affinity column and following purification, purified BAD-GST was applied to a Superdex 200 10/30 HR size-exclusion column, at a flow rate of 0.02 mL/min.
Protein samples were excised from SDS-PAGE gels and exposed to trypsin digestion prior to analysis by mass spectroscopy. MALDI-TOF was performed on a Shimadzu Axima CFP MALDI-TOF in positive ion, reflectron mode. Linear trap quadripole (LTQ) Orbitrap MS was performed on a Thermo LTQ Orbitrap Velos HPLC-nESI-LIT-Orbitrap.
To facilitate biochemical characterization of the BAD:GCK complex, we sought a method to produce functional, recombinant human BAD. Several groups have used microbial hosts to produce BAD, however, functional characterization of the resulting protein was limited.

[4] = Circular dichroism spectroscopy (secondary structure); format: physicochemical; details: far UV CD, 25°C, pH 7.8, 3–15 μM, CDPro
Procedure: Proteins were dialyzed overnight into potassium phosphate buffer (50 mM, pH 7.8) containing KCl (50 mM), glycerol (5% v/v), and TCEP (4 mM). CD spectra were recorded on an AVIV 202 CD spectrometer at 25°C with protein concentrations ranging from 3–15 μM. Spectra were recorded from 200–260 nm in 10 mm pathlength cuvettes using a 1 nm step resolution and 3 s integration time. Three scans were recorded per sample, averaged, and baseline subtracted with appropriate buffer controls. CD signals were converted to molar ellipticity and deconvoluted using CDPro Software.

T2 sequence (Q07817 with tags, fused parts or gaps DEL45-84): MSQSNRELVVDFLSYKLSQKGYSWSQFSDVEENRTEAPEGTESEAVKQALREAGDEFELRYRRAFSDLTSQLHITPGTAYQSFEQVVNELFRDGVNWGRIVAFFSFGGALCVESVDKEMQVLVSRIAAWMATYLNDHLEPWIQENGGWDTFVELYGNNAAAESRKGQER

## NLWAAQRYGRELRRM(p)SDKFVD [pBH3, 21-residue phosphorylated peptide containing the BH3 domain of BAD]
GCK; S118D BADGST 5 μM, or pBH3 5 μM, 96 well plate, S2 Fig
  Effect on GCK kinetics under Szlyk et al. buffer conditions: did not increase BAD’s effects on GCK kinetics
GCK; listed as phosphorylated BAD BH3 peptide
  Effect on GCK Vmax: no statistically significant difference in the GCK Vmax value
GCK; listed as phosphorylated BH3 peptide
  Effect on GCK Vmax: lack of an increase in the GCK Vmax value

B1: BAD-GST: recombinant human BAD with N-terminal hexahistidine tag and C-terminal GST fusion, TEV consensus sequence between (protein)
chain: MFQIPEFEPSEQEDSSSAERGLGPSPAGDGPSGSGKHHRQAPGLLWDASHQQEQPTSSSHHGGAGAVEIRSRHSSYPAGTEDDEGMGEEPSPFRGRSRSAPPNLWAAQRYGRELRRMSDEFVDSFKKGLPRPKSAGTATQMRQSSSWTRVFQSWWDRNLGRGSSAPSQ
modifications: left off: His6, N-terminal, state not stated | GST, C-terminal, kept
[1]; predicted monomer BAD-GST 47 kDa, dimer
  Molecular weight from sedimentation velocity (oligomerization state): 98 kDa
[1]; sedimentation velocity, unity = compact sphere
  Frictional ratio f/f0: 3.9
Bcl-xL
  Sedimentation coefficient: 2.1
[2]
  Aggregation, effect of refolding additives: essential to prevent aggregation of recombinant BAD
[3]; MALDI-TOF, protease inhibitors failed to alleviate degradation
  Proteolysis during recombinant production: extensive C-terminal proteolysis
[3]; native conditions, E. coli
  Aggregation when produced under native conditions: leads to aggregation of the protein
[4]
  Random coil content: 30%
  α-helical content: 10%
  β-sheet content: 37%
